Laboratory results as given in doi:10.1101/2022.09.15.508177.

Columns and labels:
[1] = target: CTCF (CCCTC-binding factor), full-length, wild type, C-terminal MBP-Flag tag (human) (UniProt P49711); experiment: single-molecule co-localisation on DNA curtains
[2] = target: CTCF (CCCTC-binding factor), full-length, wild type, C-terminal MBP-Flag tag (human) (UniProt P49711)
[3] = target: CTCF truncation mutant that only includes the 11 Zn-fingers (human); experiment: single-molecule co-localisation on DNA curtains
Chain of CTCF truncation mutant that only includes the 11 Zn-fingers (human) (P49711 266-577, stated change not applied): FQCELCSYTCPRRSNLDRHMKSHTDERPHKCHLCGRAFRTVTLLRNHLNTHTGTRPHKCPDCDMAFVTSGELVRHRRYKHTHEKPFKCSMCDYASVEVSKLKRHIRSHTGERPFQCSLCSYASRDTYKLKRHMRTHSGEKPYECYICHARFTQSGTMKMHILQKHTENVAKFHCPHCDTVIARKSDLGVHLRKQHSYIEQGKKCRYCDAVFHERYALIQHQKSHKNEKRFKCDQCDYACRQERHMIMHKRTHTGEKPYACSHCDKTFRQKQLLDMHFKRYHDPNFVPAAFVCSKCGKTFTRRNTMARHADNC

[4] = target: CTCF(Y226A/F228A) (human) (UniProt P49711); experiment: single-molecule co-localisation on DNA curtains

Row | Substance | percent of CTCF^N foci that retained cohesin [1] [%] | cohesin velocity after non-permissive (CTCF^N) collision [2] [bp s^-1] | cohesin velocity after permissive (CTCF^C) collision [2] [bp s^-1] | percent co-localised [3] [%] | percent co-localised [4] [%]
1 | cohesin-NIPBL^C with STAG1(W337A/F347A) (from UniProt Q14683;Q9UQE7;O60216;Q8WVM7;Q6KC79) (complex) | 47 |  |  |  | 
2 | cohesin-NIPBL^C (SMC1, SMC3, RAD21, STAG1 with NIPBL^C), wild type (from UniProt Q14683;Q9UQE7;O60216;Q8WVM7;Q6KC79) (complex) |  | 0.2 | 1.42 | < 50 | < 50
